From publication PMC10397247

How the values were obtained:
Test in all cases: two-hybrid library CCNG1;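 also: natural log of median RNA to DNA barcode read ratio; higher means stronger binding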
[1] = target: T1, 4H908-bH
T1 chain: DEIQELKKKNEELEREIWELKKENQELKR

[2] = target: T2, 4H3354-bH
T2 chain: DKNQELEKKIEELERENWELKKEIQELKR

[3] = target: T3, 4H754-bH
T3 chain: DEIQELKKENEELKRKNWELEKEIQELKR

[4] = target: T4, 4H953-bH
T4 chain: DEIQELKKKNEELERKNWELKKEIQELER

[5] = target: T5, 4H2729-bH
T5 chain: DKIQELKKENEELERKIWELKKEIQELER

[6] = target: T6, 4H72-bH
T6 chain: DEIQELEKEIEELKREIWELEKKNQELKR

[7] = target: T7, 4H454-bH
T7 chain: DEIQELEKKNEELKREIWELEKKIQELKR

[8] = target: T8, 4H331-bH
T8 chain: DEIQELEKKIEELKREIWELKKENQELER

[9] = target: T9, 4H2618-bH
T9 chain: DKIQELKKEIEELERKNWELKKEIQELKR

[10] = target: T10, 4H883-bA
T10 chain: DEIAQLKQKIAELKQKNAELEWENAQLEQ

[11] = target: T11, 4H967-bH
T11 chain: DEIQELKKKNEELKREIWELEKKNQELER

[12] = target: T12, 4H687-bH
T12 chain: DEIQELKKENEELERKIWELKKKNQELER

[13] = target: T13, 4H2667-bH
T13 chain: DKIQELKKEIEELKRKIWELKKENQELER

[14] = target: T14, 4H717-bH
T14 chain: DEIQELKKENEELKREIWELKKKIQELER

[15] = target: T15, 4H3907-bA
T15 chain: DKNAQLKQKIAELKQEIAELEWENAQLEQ

[16] = target: T16, 4H2576-bH
T16 chain: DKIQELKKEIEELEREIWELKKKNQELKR

[17] = target: T17, 4H883-bH
T17 chain: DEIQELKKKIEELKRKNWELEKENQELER

[18] = target: T18, 4H3427-bH
T18 chain: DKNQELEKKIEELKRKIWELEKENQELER

[19] = target: T19, 4H918-bH
T19 chain: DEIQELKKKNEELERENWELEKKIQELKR

[20] = target: T20, 4H3185-bH
T20 chain: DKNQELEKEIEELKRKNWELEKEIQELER

[21] = target: T21, 4H4001-bH
T21 chain: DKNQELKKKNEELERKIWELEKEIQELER

[22] = target: T22, 4H797-bH
T22 chain: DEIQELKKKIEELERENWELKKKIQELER

[23] = target: T23, 4H575-bH; details: mean of both orientations
T23 chain: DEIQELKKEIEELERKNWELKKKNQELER

[24] = target: T24, 4H3112-bH
T24 chain: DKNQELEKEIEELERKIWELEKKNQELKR

[25] = target: T25, 4H3782-bH
T25 chain: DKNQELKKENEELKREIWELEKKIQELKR

[26] = target: T26, 4H338-bH
T26 chain: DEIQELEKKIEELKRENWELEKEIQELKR

[27] = target: T27, 4H2442-bH
T27 chain: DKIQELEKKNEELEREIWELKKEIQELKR

[28] = target: T28, 4H3855-bH
T28 chain: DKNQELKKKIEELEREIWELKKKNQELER

[29] = target: T29, 4H568-bH
T29 chain: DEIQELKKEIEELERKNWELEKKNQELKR

interaction score [1]: -0.628 | interaction score [2]: 0.0703 | interaction score [3]: -0.751 | interaction score [4]: 0.587 | interaction score [5]: 1.77 | interaction score [6]: -2.01 | interaction score [7]: 1.64 | interaction score [8]: -0.168 | interaction score [9]: 1.93 | interaction score [10]: -2.1 | interaction score [11]: 0.424 | interaction score [12]: -0.163 | interaction score [13]: -0.37 | interaction score [14]: 0.313 | interaction score [15]: -1.28 | interaction score [16]: 0.27 | interaction score [17]: 0.442 | interaction score [18]: -0.00664 | interaction score [19]: -0.517 | interaction score [20]: -0.571 | interaction score [21]: -0.244 | interaction score [22]: -0.629 | interaction score [23]: 0.167 | interaction score [24]: -0.123 | interaction score [25]: -0.566 | interaction score [26]: 0.526 | interaction score [27]: 1.25 | interaction score [28]: -1.1 | interaction score [29]: -0.0562
Binder: DKIQELEKKNEELEREIWELKKEIQELKR [4H2442-bH]
